According to patent US20120082679A1 (Merck Sharp & Dohme, published 2012):
Read-outs that look alike come from different tables or passages of the source.

What was measured:
[1] = molecular target: T1, recombinant human PCSK9, V5-, His-tagged (human, UniProt Q8NBP7 31-692, limits assumed); experiment: cell-based or functional assay
[2] = molecular target: T1, recombinant human PCSK9, V5-, His-tagged; experiment: cell-based or functional assay; remark: listed apart in the source
[3] = molecular target: T2, V5-, His-tagged secreted alkaline phosphatase protein (SEAP) (UniProt P05187 23-511); experiment: ELISA, immobilized V5-, His-tagged SEAP, Fab culture supernatant, HRP anti-Fab detection
T2 construct: Tag control antigen, expressed in the same cells as the PCSK9 antigen and similarly purified; not shown: V5 and His tags
Method: Cultures of individual transformants were IPTG-induced and grown overnight for Fab expression. Culture supernatants (candidate Fabs) were incubated with purified V5-, His-tagged PCSK9 protein immobilized in wells of 96-well Nunc Maxisorp plates, washed with 0.1% Tween™ 20 in PBS using a plate washer, incubated with HRP-coupled anti-Fab antibody, and washed again with PBS/Tween™ 20. Bound HRP was detected by addition of […] substrated, and A₄₅₀ values of wells were read with a plate reader.
EsB antigen was bound to three wells of the plate and subsequently incubated with anti-EsB Fab. To control for Fabs reacting with the V5 or His tags of the recombinant PCSK9 antigen, parallel ELISAs were performed using V5-, His-tagged secreted alkaline phosphatase protein (SEAP) expressed in the same cells as the original PCSK9 antigen and similarly purified. Putative PCSK9-reactive Fabs were identified as yielding>3× background values when incubated with PCSK9 antigen but negative when incubated with SEAP. Clones scoring as PCSK9-reactive in the first round of screening were consolidated onto a single plate, re-grown in triplicate, re-induced with IPTG, and re-assayed in parallel ELISAs vs. PCSK9 and SEAP. Positive and negative controls were included as described above. Clones scoring positive in at least 2 of 3 replicates were carried forward into subsequent characterizations. In cases of known or suspected mixed preliminary clones, cultures were re-purified by streaking for single colonies on 2×YT plates with chloramphenicol, and liquid cultures from three or more separate colonies were assayed again by ELISAs in triplicate as described above.

[4] = molecular target: T1, recombinant human PCSK9, V5-, His-tagged; experiment: cell-based or functional assay; remark: listed apart in the source
[5] = molecular target: T1, recombinant human PCSK9, V5-, His-tagged; experiment: SPR (Biacore 2000), Direct (PCSK9 immobilized, Fab in mobile phase), mean N = 2
[6] = molecular target: T1, recombinant human PCSK9, V5-, His-tagged; experiment: cell-based or functional assay; remark: listed apart in the source
[7] = molecular target: T1, recombinant human PCSK9, V5-, His-tagged; experiment: SPR (Biacore 2000), Direct & Ab Capture, mean N = 3
Method: SPR measurements were performed using a Biacore™ (Pharmacia Biosensor AB, Uppsala, Sweden) 2000 system. Sensor chip CM5 and Amine coupling kit for immobilization were from Biacore™.
Anti-Fab IgG (Human specific) was covalently coupled to surfaces 1 and 2 of a Sensor Chip CM5 via primary amine groups, using the immobilization wizard with the “Aim for immobilization” option. A target immobilization of 5000 RU was specified. The wizard uses a 7 minute activation with a 1:1 mixture of 100 mM NHS and 400 mM EDC; injects the ligand in several pulses to achieve the desired level, then deactivates the remaining surface with a 7 minute pulse of ethanolamine.
Anti-PCSK9 Fabs were captured on capture surface 2 and surface 1 was used as a reference for kinetic studies of Fab:PCSK9 interactions. Fab was captured by flowing a 500 ng/ml solution at 5 μl/min for 1-1.5 minutes to reach a target RL for an Rₘₐₓ of 100-150 RU for the reaction. 5-10 concentrations of hPCSK9v5H is or mPCSK9v5H is antigens were flowed across the surface at 30 μl/minute for 3-4 minutes. 15-60 minutes dissociation time was allowed before regeneration of the Anti-Fab surface with a 30 second pulse of 10 mM glycine pH 2.0.

[8] = molecular target: T1, recombinant human PCSK9, V5-, His-tagged; experiment: cell-based or functional assay; remark: listed apart in the source
[9] = molecular target: T1, recombinant human PCSK9, V5-, His-tagged; experiment: cell-based or functional assay; remark: listed apart in the source

T2 sequence (P05187 23-511): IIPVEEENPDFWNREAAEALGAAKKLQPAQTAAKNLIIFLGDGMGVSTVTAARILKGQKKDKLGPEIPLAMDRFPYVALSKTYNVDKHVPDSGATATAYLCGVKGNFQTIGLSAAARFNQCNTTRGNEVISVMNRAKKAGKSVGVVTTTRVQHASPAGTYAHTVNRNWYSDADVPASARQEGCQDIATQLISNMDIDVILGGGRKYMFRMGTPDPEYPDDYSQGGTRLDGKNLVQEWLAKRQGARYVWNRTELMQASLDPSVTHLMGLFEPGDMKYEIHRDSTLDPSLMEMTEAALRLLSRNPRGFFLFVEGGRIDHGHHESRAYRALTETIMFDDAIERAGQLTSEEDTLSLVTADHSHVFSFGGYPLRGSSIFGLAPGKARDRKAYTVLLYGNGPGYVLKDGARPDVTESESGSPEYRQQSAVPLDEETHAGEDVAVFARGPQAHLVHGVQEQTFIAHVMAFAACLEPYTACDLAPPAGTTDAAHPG
T1 sequence (Q8NBP7 31-692 limits assumed): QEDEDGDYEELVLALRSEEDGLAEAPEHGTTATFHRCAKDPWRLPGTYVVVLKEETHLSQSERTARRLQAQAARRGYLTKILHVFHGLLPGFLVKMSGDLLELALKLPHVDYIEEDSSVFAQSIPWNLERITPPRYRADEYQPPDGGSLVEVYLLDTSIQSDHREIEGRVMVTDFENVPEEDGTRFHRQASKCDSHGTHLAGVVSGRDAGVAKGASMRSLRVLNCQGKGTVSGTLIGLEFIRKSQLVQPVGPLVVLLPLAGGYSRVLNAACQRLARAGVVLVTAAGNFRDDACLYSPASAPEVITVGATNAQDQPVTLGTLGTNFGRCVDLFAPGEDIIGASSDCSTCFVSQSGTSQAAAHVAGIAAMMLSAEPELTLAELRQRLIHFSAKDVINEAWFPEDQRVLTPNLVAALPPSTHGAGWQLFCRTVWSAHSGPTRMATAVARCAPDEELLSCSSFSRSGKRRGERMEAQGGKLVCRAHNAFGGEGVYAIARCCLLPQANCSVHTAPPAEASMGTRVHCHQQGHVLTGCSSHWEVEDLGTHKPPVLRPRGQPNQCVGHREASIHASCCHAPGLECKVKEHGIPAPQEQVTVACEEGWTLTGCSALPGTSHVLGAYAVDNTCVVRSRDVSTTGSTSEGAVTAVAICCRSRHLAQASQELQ

| Binder | inhibition of PCSK9-dependent inhibition of cellular LDL uptake (Exopolar assay) [1] | IC50; Fab titrated against fixed PCSK9 (25 µg/ml), recovery of cellular diI-LDL uptake (Exopolar assay) [2] | binding result [3] | IC50; Fab titrated against fixed PCSK9 (25 µg/ml), recovery of cellular diI-LDL uptake (Exopolar assay) [4] | Kd [5] | koff [5] | kon [5] | IC50; Fab titrated against fixed PCSK9 (25 µg/ml), recovery of cellular diI-LDL uptake (Exopolar assay) [6] | Kd [7] | koff [7] | kon [7] | IC50; Fab titrated against fixed PCSK9 (25 µg/ml), recovery of cellular diI-LDL uptake (Exopolar assay) [8] | IC50; Fab titrated against fixed PCSK9 (25 µg/ml), recovery of cellular diI-LDL uptake (Exopolar assay) [9] |
| --- | --- | --- | --- | --- | --- | --- | --- | --- | --- | --- | --- | --- | --- |
| 3CX2A06 (Fab, V domains shown, No SPR values are printed for this Fab; also called 3CX2A06 Fab) VH: QVQLVQSGAEVKKPGESLKISCKGSGYSFSNFWIAWVRQMPGKGLEWMGIIDPSDSWTRYSPSFQGQVTISADKSISTAYLQWSSLKASDTAMYYCARGDGQDFDNWGQGTLVTVSS VL: DIQMTQSPSSLSASVGDRVTITCRASQNINSYLNWYQQKPGKAPKLLIYAASSLQSGVPSRFSGSGSGTDFTLTISSLQPEDFAVYYCLQNYDLPNTFGQGTKVEIKR | 23% | 107 nM | no binding |  |  |  |  |  |  |  |  |  |  |
| 3CX3D02 (Fab, V domains shown, also called 3CX3D02 Fab) VH: QVQLVQSGAEVKKPGESLKISCKGSGYSFTNSWIGWVRQMPGKGLEWMGIIYPSDSYTIYSPSFQGQVTISADKSISTAYLQWSSLKASDTAMYYCARGGGYYYALMDVWAQGTLVTVSS VL: DIQMTQSPSSLSASVGDRVTITCRASQTISTWLNWYQQKPGKAPKLLIYAASSLQSGVPSRFSGSGSGTDFTLTISSLQPEDFATYYCLQDSSLPLTFGQGTKVEIKR | 23% |  | no binding | 289 nM | 7.01 nM | 0.000876 s⁻¹ | 166000 M⁻¹ s⁻¹ |  |  |  |  |  |  |
| 1CX1G08 (Fab, V domains shown, also called 1CX1G08 Fab) VH: QVQLVESGGGLVQPGGSLRLSCAASGFTFSDYWVSWVRQAPGKGLEWVSFISYDGSSTYYADSVKGRFTISRDNSKNTLYLQMNSLRAEDTAVYYCARTYFEGVDVWGQGTLVTVSS VL: DIELTQPPSVSVAPGQTARISCSGDNIGTYYVHWYQQKPGQAPVLVIYDDSNRPSGIPERFSGSNSGNTATLTISGTQAEDEADYYCGTWDNTSFNLVFGGGTKLTVLG | 53% |  | no binding |  |  |  |  | 267 nM | 0.55 nM | 0.000176 s⁻¹ | 335000 M⁻¹ s⁻¹ |  |  |
| 3CX4B08 (Fab, V domains shown, also called 3CX4B08 Fab) VH: QVQLVESGGGLVQPGGSLRLSCAASGFTFSNYTMNWVRQAPGKGLEWVSFISSSSSETYYADSVKGRFTISRDNSKNTLYLQMNSLRAEDTAVYYCARGYGDMVDLWGQGTLVTVSS VL: DIELTQPPSVSVAPGQTARISCSGDSIPTYYVAWYQQKPGQAPVLVIYSDTDRPSGIPERFSGSNSGNTATLTISGTQAEDEADYYCQSFDNHGYHVFGGGTKLTVLG | 61% |  | no binding |  |  |  |  |  | 2.97 nM | 0.000685 s⁻¹ | 233000 M⁻¹ s⁻¹ | 127 nM |  |
| 3BX5C01 (Fab, V domains shown, also called 3BX5C01 Fab) VH: QVQLVQSGAEVKKPGESLKISCKGSGYSFTSYGISWVRQMPGKGLEWMGMIDPSDSFTTYSPSFQGQVTISADKSISTAYLQWSSLKASDTAMYYCARGYYFTYALQPMDHWGQGTLVTVSS VL: DIELTQPPSVSVAPGQTARISCSGDNLRDYIVHWYQQKPGQAPVLVIYDDSNRPSGIPERFSGSNSGNTATLTISGTQAEDEADYYCGFDNGGDIDVFGGGTKLTVLG | 25% |  | no binding |  | 23.1 nM | 0.000642 s⁻¹ | 28000 M⁻¹ s⁻¹ |  |  |  |  |  | 1250 nM |
